PMC10846153

Test system: T1, OxyR (Reut_A2805) (Cupriavidus pinatubonensis), ORF:7651349a
T1 sequence: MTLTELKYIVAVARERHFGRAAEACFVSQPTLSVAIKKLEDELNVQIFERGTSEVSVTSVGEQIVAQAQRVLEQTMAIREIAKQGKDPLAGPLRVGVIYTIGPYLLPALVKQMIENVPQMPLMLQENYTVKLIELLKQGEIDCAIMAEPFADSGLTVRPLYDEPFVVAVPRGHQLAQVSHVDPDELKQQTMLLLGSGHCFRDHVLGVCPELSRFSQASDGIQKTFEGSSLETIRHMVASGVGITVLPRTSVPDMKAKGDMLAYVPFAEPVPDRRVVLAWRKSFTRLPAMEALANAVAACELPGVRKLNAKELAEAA
Experiment: EMSA
Details: EMSA: 20 mM Tris pH 7.4, 4 mM MgCl2, 100 mM NaCl, 10% glycerol; 20 min at room temperature; 6% native PAGE with 5% glycerol in 0.5x TBE

## AAATGCATCGCTCTCAGAATACCCAAAAATGAGCAATTCGATGCCATCGACTTTCGCGTTTCTGGCAACTTTGCGCGAACTGTAGAAAATACCGGATTACAGGTATTGTCCTGTCCAAGTCGCACAGCGTAAATTTCGCCTGACTTCCGTTGCGCAACCAACAGAAACACAAAGATT (double strand) [PT6SS1]
  binding: binds
